The target in the experiment is T1, acetylated BSA (bovine, UniProt P02769 25-607, acetylated (N-acetyl groups; positions not stated); 125I-labelled or Alexa Fluor 488 C5 maleimide-labelled in the uptake experiments).
T1 construct: also called NAc-BSA; N-acetyl bovine serum albumin
Put plainly: ELISA, plates coated with acetylated BSA, 5 mM CaCl2. A general note: ELISA stands for enzyme-linked immunosorbent assay.

Substitutions are numbered along the chain they refer to. Names may count otherwise.

T1 sequence (P02769 25-607 limits assumed): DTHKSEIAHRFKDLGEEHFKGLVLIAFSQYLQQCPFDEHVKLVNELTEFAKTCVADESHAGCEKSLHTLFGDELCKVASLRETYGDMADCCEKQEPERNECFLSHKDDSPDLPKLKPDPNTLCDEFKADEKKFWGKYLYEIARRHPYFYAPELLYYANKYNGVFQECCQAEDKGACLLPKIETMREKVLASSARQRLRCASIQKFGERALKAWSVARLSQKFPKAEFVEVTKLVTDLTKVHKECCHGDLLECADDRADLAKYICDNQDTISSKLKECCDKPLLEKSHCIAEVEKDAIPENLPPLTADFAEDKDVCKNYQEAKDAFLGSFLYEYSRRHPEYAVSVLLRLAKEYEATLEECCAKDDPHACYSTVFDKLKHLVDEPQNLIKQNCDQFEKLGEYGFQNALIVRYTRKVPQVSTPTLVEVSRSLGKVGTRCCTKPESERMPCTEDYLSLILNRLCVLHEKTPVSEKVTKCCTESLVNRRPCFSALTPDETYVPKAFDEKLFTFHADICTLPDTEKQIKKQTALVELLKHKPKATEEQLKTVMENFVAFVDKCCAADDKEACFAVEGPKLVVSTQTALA

B1: FIBCD1 FReD A432V (receptor)
chain: ATGSRPRDCLDVLLSGQQDDGVYSVFPTHYPAGFQVYCDMRTDGGGWTVFQRREDGSVNFFRGWDAYRDGFGRLTGEHWLGLKRIHALTTQAAYELHVDLEDFENGTAYARYGSFGVGLFSVDPEEDGYPLTVADYSGTAGDSLLKHSGMRFTTKDRDSDHSENNCAAFYRGAWWYRNCHTSNLNGQYLRGAHASYVDGVEWSSWTGWQYSLKFSEMKIRPVREDR
Regarding B1, the binding result is on record as “no binding”.

B2: FIBCD1 FReD H415G (receptor)
chain: B1 chain with H180G, V197A
Regarding B2, the binding result was “no binding”.

(Values after US20140120098A1 (DANSK UNIVERSITET, published 2014).)
